According to patent US20230193235A1:

Target: RBD (a.a. 333-529) of SARS-CoV-2 S fused to the Fc region of IgG1 (SARS-CoV-2; human) (UniProt P0DTC2)
Experiment: BLI, RBD-IgG1 captured on anti-human Fc sensor, dimeric sACE22 as analyte (avid)

Substance: untagged sACE22.v2.4 manufactured in ExpiCHO-S cells (from UniProt Q9BYF1 19-732) (receptor)
- kon: 200000 M⁻¹ s⁻¹
